Data taken from patent US12698507B2, “Methods and compositions for conferring and/or enhancing herbicide tolerance using protoporphyrinogen IX oxidase of various cyanobacteria or variant thereof” (FarmHannong Co., Ltd., priority 2019, dated 2026).

Test system: PPO-deficient BT3 E. coli (ΔPPO)
Test: PPO-inhibiting herbicide tolerance test of PPO variants in E. coli (growth on herbicide-containing LB agar)
Format: cell-based
Details: CyPPO19 variants in BT3 (ΔPPO) E. coli; LB agar with 0 to 2,000 μM herbicide, 37° C., dark, 16-20 hours
Source text: To enhance the PPO-inhibiting herbicide resistance of CyPPO19 and CyPPO18, PPO variant genes of the above example 2 were constructed. They were transformed to BT3 (ΔPPO) strain which is deficient of PPO activity and cultured in LB media with PPO-inhibiting herbicide, thereby examining whether growth of transformed BT3 was not inhibited.
BT3 competent cells were transformed with the pET303-CyPPO19 (wild type), pET303-CyPPO18 (wild type) plasmids, and those with a mutation(s) constructed (refer to example 2) via heat shock method, and were cultured in LB agar media containing ampicillin.
Single colony transformed with each CyPPO gene was cultured in 3 mL of LB broth (LPSS) containing ampicillin for more than 12 hours, and then was subcultured in LB broth until absorbance (OD600) reached 0.5 to 1. Then, it was diluted with LB broth to OD600=0.5. Again, the diluted solution was serially diluted 4 times by a factor of one tenth.
The LB agar media (LB 25 g/L, Bacto agar 12 g/L) containing ampicillin (100 μg/mL) and 0 to 2,000 μM of various herbicides were prepared. Herbicide solution stocks were all prepared in DMSO.
Then, 10 μL of each diluted solution of E. coli was dropped on the plate and cultured at 37° C. under dark for 16-20 hours. PPO-inhibiting herbicide resistance was evaluated with the extent of E. coli growth containing each gene was observed.
The extent of herbicide resistance was evaluated by the relative growth of variants to that of wild type, and listed in Tables 9 and 10 and FIGS. 3 to 32.
In Tables 9 and 10, the tolerance level of variants showing equivalent resistance to wild type was presented as ‘−’, and was done as ‘+’ per each 10-fold resistance until ‘+++++’ as maximal resistance.
FIGS. 3 to 30 and FIGS. 31 and 32 show the transformed E. coli growth result of CyPPO19 WT and its variants and CyPPO18 WT and its variants, respectively. The concentrations of herbicides were written above the photographs of tolerance test. A 10-fold dilution series of spots were shown from OD600=0.5 of the leftmost spot to OD600=0.00005 of the rightmost one.

B1: CyPPO19 R89A + V305M + F360T: variant of CyPPO19 PPO protein (SEQ ID NO: 1) (protein)
chain: MSEVDVAIVGGGLSGLSLAWRLQQSAPQYSVVLLEASDRLGGNITTQTAEGFVWELGPNSFAPTPALLQLIAEVGLQSELIRGDRHLPAYIYWRGQLYPLQPTRPLALATSNLLSPWGKVRAALGALGFVPPYLGSGDESVNSFFRRHLGQEVAERLVAPFVSGVYAGDPQQLSAAAAFRRIAQLEKLGGGLIAGALHLRRQQAPKPKPPTSVQMRPGELGSFKEGLAALPRAIAQQLKAPIHLQTPVQEITPDPKGGYLLRSGEQTWRARSVVLATPAYQTAELVAPFQPAIARVLATIPYPTMACVVLAYPAGLGRSVRPGFGVLIPRSQGIRTLGTIWSSCLFPQRTPAGWQVFTSTIGGATDPDLASLSEEAIVQQVQQDLNRLLDLPAAKARLLGMKVWRRAIPQYMVGYPEQWQQVTHALSQTPGLFLCSNYAEGVALGDRVEHGNRTAAAVAAYLSGGQP
modifications: Synthetic_PPO of Thermosynechococcus elongatus PKUAC-SCTE542 (comprising GenBank No. CP032152.1)
- tolerance level relative to wild type, Carfentrazone: ++ (‘+’ per each 10-fold resistance)
- tolerance level relative to wild type, Flumioxazin: +++++ (until ‘+++++’ as maximal resistance)
- tolerance level relative to wild type, Fomesafen: +++ (‘+’ per each 10-fold resistance)
- tolerance level relative to wild type, Oxyfluorfen: +++ (‘+’ per each 10-fold resistance)
- tolerance level relative to wild type, Saflufenacil: +++++ (until ‘+++++’ as maximal resistance)
- tolerance level relative to wild type, Sulfentrazone: +++++ (until ‘+++++’ as maximal resistance)
- tolerance level relative to wild type, Tiafenacil: +++++ (until ‘+++++’ as maximal resistance)

B2: CyPPO19 R89A + L327T + F360I: variant of CyPPO19 PPO protein (SEQ ID NO: 1) (protein)
chain: MSEVDVAIVGGGLSGLSLAWRLQQSAPQYSVVLLEASDRLGGNITTQTAEGFVWELGPNSFAPTPALLQLIAEVGLQSELIRGDRHLPAYIYWRGQLYPLQPTRPLALATSNLLSPWGKVRAALGALGFVPPYLGSGDESVNSFFRRHLGQEVAERLVAPFVSGVYAGDPQQLSAAAAFRRIAQLEKLGGGLIAGALHLRRQQAPKPKPPTSVQMRPGELGSFKEGLAALPRAIAQQLKAPIHLQTPVQEITPDPKGGYLLRSGEQTWRARSVVLATPAYQTAELVAPFQPAIARVLATIPYPTVACVVLAYPAGLGRSVRPGFGVTIPRSQGIRTLGTIWSSCLFPQRTPAGWQVFTSIIGGATDPDLASLSEEAIVQQVQQDLNRLLDLPAAKARLLGMKVWRRAIPQYMVGYPEQWQQVTHALSQTPGLFLCSNYAEGVALGDRVEHGNRTAAAVAAYLSGGQP
modifications: Synthetic_PPO of Thermosynechococcus elongatus PKUAC-SCTE542 (comprising GenBank No. CP032152.1)
- tolerance level relative to wild type, Carfentrazone: + (‘+’ per each 10-fold resistance)
- tolerance level relative to wild type, Flumioxazin: ++++ (‘+’ per each 10-fold resistance)
- tolerance level relative to wild type, Fomesafen: ++ (‘+’ per each 10-fold resistance)
- tolerance level relative to wild type, Oxyfluorfen: + (‘+’ per each 10-fold resistance)
- tolerance level relative to wild type, Saflufenacil: ++ (‘+’ per each 10-fold resistance)
- tolerance level relative to wild type, Sulfentrazone: +++ (‘+’ per each 10-fold resistance)
- tolerance level relative to wild type, Tiafenacil: ++++ (‘+’ per each 10-fold resistance)
